Results: US20240115722A1
Substitutions are numbered along the chain they refer to. One block for each binder: values may come before it.

Target: human EPH receptor A5 (EphA5) expressed on cells (human) (UniProt P54756)
Assay: high-throughput flow cytometry, HEK293T cells expressing wild-type EPHA5 versus vector alone, Fab at 0.50 µg/ml

Chain of human EPH receptor A5 (EphA5) expressed on cells (human) (P54756 25-1037 limits assumed): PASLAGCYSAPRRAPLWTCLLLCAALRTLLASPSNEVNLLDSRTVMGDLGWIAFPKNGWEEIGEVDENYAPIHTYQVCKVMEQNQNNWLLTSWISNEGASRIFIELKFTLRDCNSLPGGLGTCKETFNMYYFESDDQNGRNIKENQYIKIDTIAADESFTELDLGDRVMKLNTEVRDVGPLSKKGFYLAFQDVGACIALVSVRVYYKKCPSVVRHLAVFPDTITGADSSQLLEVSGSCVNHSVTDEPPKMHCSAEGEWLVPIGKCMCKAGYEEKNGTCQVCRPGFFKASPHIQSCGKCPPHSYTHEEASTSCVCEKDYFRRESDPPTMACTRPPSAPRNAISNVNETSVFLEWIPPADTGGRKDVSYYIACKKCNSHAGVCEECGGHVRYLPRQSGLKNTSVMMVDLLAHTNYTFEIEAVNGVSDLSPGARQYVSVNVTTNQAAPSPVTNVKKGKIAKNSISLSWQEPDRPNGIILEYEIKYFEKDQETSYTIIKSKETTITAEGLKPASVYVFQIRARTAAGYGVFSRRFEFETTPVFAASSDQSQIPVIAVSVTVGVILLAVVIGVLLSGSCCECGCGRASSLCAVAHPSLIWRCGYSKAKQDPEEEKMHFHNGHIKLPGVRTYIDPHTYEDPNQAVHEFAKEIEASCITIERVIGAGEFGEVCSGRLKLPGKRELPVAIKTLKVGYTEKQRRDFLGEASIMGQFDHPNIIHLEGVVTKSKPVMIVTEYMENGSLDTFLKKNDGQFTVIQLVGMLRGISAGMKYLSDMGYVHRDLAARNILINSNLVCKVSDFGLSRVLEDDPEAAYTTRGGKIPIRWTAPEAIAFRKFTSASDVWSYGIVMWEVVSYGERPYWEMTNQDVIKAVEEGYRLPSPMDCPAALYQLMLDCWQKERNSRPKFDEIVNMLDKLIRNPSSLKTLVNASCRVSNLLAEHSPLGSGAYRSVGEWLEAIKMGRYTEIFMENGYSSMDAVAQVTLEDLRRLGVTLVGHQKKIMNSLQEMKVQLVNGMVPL

Signal:Background: 70
B1: Fab derived from the H5K3 antibody (Fab, part only; not given: CH1 and upper hinge limits, V domains shown, not shown: another chain or arm of the molecule; a dimerising Fc or GST)
VH: EVQLVESGGGLVQPGGSLKLSCAASGFTFSTFGIHWVRQAPGKGLEWVAYISGASTTIYYADSVKGRFTISRDNSKNTLYLQMNSLRAEDTAVYYCARYGTSFPYGLDYWGQGTLVTVSS
VL: DIVMTQSPDSLAVSLGERATINCKASQSVDYDGDSYMNWYQQKPGKAPKLLIYGASNLESGIPDRFSGSGSGTDFTLTISRLEPEDAAVYYCQQSNEDPFTFGQGTKLEIK

Signal:Background: 66
B2: Fab derived from the H4K3 antibody (Fab, part only; not given: CH1 and upper hinge limits, V domains shown, not shown: another chain or arm of the molecule; a dimerising Fc or GST)
VH: B1 VH with S63T
VL: B1 VL
